Data set [1] deals with T1, NTT1 (plastid / chloroplast ATP/ADP transporter 1) (Arabidopsis thaliana, UniProt Q39002, K528R).
T1 construct: gene AATP1; mature form lacking first 79 residues (transit peptide), N-terminal His-tag, C-terminal StreptagII; E. coli; purified in LAPAO; monomers and dimers
T1 sequence (Q39002 80-624 K528R): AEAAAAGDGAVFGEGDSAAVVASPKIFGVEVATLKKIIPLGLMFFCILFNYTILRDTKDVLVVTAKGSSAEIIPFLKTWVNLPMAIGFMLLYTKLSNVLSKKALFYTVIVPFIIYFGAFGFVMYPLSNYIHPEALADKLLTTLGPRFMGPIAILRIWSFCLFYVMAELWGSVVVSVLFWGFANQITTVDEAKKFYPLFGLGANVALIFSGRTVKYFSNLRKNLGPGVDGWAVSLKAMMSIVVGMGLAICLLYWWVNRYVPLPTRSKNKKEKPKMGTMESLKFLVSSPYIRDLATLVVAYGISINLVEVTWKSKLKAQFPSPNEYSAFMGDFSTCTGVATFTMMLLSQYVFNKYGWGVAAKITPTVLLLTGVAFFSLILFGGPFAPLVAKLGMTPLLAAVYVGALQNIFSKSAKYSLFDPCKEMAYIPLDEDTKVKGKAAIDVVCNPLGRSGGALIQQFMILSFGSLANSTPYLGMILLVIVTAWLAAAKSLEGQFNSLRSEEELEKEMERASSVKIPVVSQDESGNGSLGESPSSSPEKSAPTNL
Put plainly: tryptophan fluorescence variation. Format: binding. From the text:
(§1) tryptophan fluorescence variation on NTT1 (plastid / chloroplast ATP/ADP transporter 1)

For data set [2], the target named is T2, NTT1 (plastid / chloroplast ATP/ADP transporter 1) (Arabidopsis thaliana, UniProt Q39002, E246K).
T2 construct: gene AATP1; mature form lacking first 79 residues (transit peptide), N-terminal His-tag, C-terminal StreptagII; E. coli; purified in LAPAO; monomers and dimers
T2 sequence (Q39002 80-624 E246K): T1 sequence (Q39002 80-624 K528R) with E167K, R449K
Nature of the data set: tryptophan fluorescence variation. Format: binding.
From the text: as §1

In data set [3] the target is T3, NTT1 (plastid / chloroplast ATP/ADP transporter 1) (Arabidopsis thaliana, UniProt Q39002, K528E).
T3 construct: gene AATP1; mature form lacking first 79 residues (transit peptide), N-terminal His-tag, C-terminal StreptagII; E. coli; purified in LAPAO; monomers and dimers
T3 sequence (Q39002 80-624 K528E): T1 sequence (Q39002 80-624 K528R) with R449E
Nature of the data set: tryptophan fluorescence variation. The format is binding. The conditions noted are these: read-out: Affinity for ADP.
From the text: as §1

The target of another data set is T4, NTT1ΔC (Arabidopsis thaliana, UniProt Q39002).
T4 construct: gene AATP1; mature form (first 79 residues removed) with last 41 residues deleted (deletion borders computed from a recalled length of 624); tagged; E. coli; purified in LAPAO; partly aggregated
T4 sequence (Q39002 80-583): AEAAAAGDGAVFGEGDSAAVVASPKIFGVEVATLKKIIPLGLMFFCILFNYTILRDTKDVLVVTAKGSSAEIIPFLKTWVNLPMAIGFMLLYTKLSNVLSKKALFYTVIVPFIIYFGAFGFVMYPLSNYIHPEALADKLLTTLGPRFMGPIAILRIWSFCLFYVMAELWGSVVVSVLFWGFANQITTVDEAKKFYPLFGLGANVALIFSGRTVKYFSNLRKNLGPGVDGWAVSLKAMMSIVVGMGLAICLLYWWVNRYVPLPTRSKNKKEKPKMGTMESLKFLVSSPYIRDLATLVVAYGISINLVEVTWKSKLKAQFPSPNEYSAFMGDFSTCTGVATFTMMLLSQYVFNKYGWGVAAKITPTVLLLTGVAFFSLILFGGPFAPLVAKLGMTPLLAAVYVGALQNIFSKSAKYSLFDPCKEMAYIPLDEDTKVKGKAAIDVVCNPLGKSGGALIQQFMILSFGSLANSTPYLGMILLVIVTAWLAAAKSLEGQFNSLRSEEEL
Put plainly: tryptophan fluorescence variation, two-site fit. The format is binding. To be noted: 20 mM Tris pH 8, 10 mM NaCl, 0.1% LAPAO, 25°C, stronger site of two-site fit. From the text: tryptophan fluorescence variation, two-site fit on NTT1ΔC

Data set [4] has as its target T5, NTT1 (plastid / chloroplast ATP/ADP transporter 1) (Arabidopsis thaliana, UniProt Q39002).
T5 construct: gene AATP1; mature form lacking first 79 residues (transit peptide), N-terminal His-tag, C-terminal StreptagII; E. coli; purified in LAPAO; monomers and dimers
T5 sequence (Q39002 80-624): T1 sequence (Q39002 80-624 K528R) with R449K
Nature of the data set: tryptophan fluorescence quenching. Format: binding. To be noted: 20 mM Tris pH 8, 10 mM NaCl, 0.1% LAPAO, 25°C; no Mg2+, no Pi; one-site fit; read-out: Affinity. From the text: tryptophan fluorescence quenching on NTT1 (plastid / chloroplast ATP/ADP transporter 1)

Data set [5] concerns the target T6, NTT1 (plastid / chloroplast ATP/ADP transporter 1) (Arabidopsis thaliana, UniProt Q39002, K156R).
T6 construct: gene AATP1; mature form lacking first 79 residues (transit peptide), N-terminal His-tag, C-terminal StreptagII; E. coli; purified in LAPAO; monomers and dimers
T6 sequence (Q39002 80-624 K156R): T1 sequence (Q39002 80-624 K528R) with K77R, R449K
Put plainly: tryptophan fluorescence variation. The format is binding. To be noted: read-out: Affinity for ATP.
From the text: as §1

In data set [6] the target is Chloroplast ATP/ADP transporter 1 (NTT1), mature form (Arabidopsis thaliana). Nature of the data set: AUC; sedimentation velocity, NTT1 solubilised and purified in FC12; 42,000 rpm, 10°C.
For data set [7] the target is unchanged. Put plainly: AUC; sedimentation velocity, purified protein in 20 mM Tris pH 8, 100 mM NaCl, 0.1% LAPAO, 3 mM desthiobiotin; 42,000 rpm, 10°C; c(s) analysis, absorbance and interference.
Data set [8] has the same target. Put plainly: Multiple Angle Laser Light Scattering; purified NTT1 in LAPAO; data not shown.
For data set [9] the target is unchanged. Put plainly: AUC; sedimentation velocity, NTT1 exchanged from detergent into amphipols; 42,000 rpm, 10°C.
The target is the same in data set [10]. Put plainly: AUC; sedimentation velocity, NTT1 solubilised and purified in β-DDM; 42,000 rpm, 10°C.
Substrate in data set [11]: Nc1ncnc2c1ncn2[C@@H]1O[C@H](COP(=O)(O)OP(=O)(O)OP(=O)(O)O)[C@@H](O)[C@H]1O
Put plainly: radioactive ATP uptake in whole E. coli cells. Format: cell-based, Arabidopsis thaliana. The conditions noted are these: transport Km; C-terminal Mistic fusion. From the text:
radioactive ATP uptake in whole E. coli cells on […]

Substrate in data set [12]: Nc1ncnc2c1ncn2[C@@H]1O[C@H](COP(=O)(O)OP(=O)(O)O)[C@@H](O)[C@H]1O
Nature of the data set: ATP/ADP exchange by luciferase luminescence, whole E. coli cells. The format is cell-based, Arabidopsis thaliana. To be noted: transport Km; C-terminal Mistic fusion.

Experimental findings from article PMC3306366, “Oligomeric Status and Nucleotide Binding Properties of the Plastid ATP/ADP Transporter 1: Toward a Molecular Understanding of the Transport Mechanism” (PLoS ONE, 2012) are described below.

Residue numbers refer to the chain shown, from its start. Read-outs that look alike come from different tables or passages of the source.

As to `Nc1ncnc2c1ncn2[C@@H]1O[C@H](COP(=O)(O)OP(=O)(O)O)[C@@H](O)[C@H]1O` [ADP], the Kd was 33.5 ± 22.3 µM in [1] (read-out: Affinity for ADP); 14 ± 5.1 µM in data set [2] (read-out: Affinity for ADP); 19 ± 24.1 µM in data set [3]; 0.6 ± 0.7 µM at NTT1ΔC (read-out: Affinity for ADP); 8.6 ± 1.5 µM in data set [4].

Regarding `Nc1ncnc2c1ncn2[C@@H]1O[C@H](COP(=O)(O)OP(=O)(O)OP(=O)(O)O)[C@@H](O)[C@H]1O` [ATP], the Kd in data set [1] (read-out: Affinity for ATP) is greater than 1000 µM; in [5] it was 91.2 ± 58.8 µM; in data set [2] (read-out: Affinity for ATP), 1.9 ± 1.7 µM; on NTT1ΔC (read-out: Affinity for ATP), 0.7 ± 0.5 µM; in [4] it was 4.2 ± 0.7 µM.

The term stoichiometry N denotes the number of molecules, sites or subunits per partner or assembly. For “Chloroplast ATP/ADP transporter 1 (NTT1), mature form (natural protein)”, the dimer (% of the three species) was 35% in data set [6], 35% in data set [7], 33% in data set [9] and 29% in data set [10]. Further, the figures for the tetramer (% of the three species) in [6], in [7] and in [9] were 18%, 23% and 23%, respectively. Further, the stoichiometry N in data set [7] worked out at 2; in data set [8], 4.

B1: NTT1mis (Arabidopsis thaliana) (protein)
chain: T1 sequence (Q39002 80-624 K528R) with R449K
notes: expressed in E. coli, assayed in whole cells; with Protein mistic
The Km is the concentration of substrate that gives half-maximal velocity. For B1, the Km was found to be 13.2 ± 5.3 µM in data set [11] and 12.0 ± 5.2 µM in [12].
